Laboratory results: the supplement of paper PMC9732359
± gives the uncertainty stated by the source.

Experiment: protein stability index of a GFP-peptide fusion (yeast GPS) (PSI 1-4); higher = more stable; sorted into four equal gates, so the index is relative within each strain
Method in brief: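 For each peptide, the protein stability index sums the read frequency in every gate after multiplying it by the gate number. Read frequencies came from plasmids that were PCR-amplified from each gate and Illumina-sequenced, with reads assigned to strains by barcodes. The gates were four equal bins of GFP/Cherry fluorescence ratio applied to mid-log yeast in leucine-free medium carrying a pooled library of tiled 17-residue yeast protein peptides fused downstream of GFP on a Cherry-expressing plasmid.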

## KNIHISKRSKIDIINKL [YML103C/NUP188]
doa10∆
  protein stability index: 1.34 ± 0.17
ubr1∆
  protein stability index: 1.49 ± 0.14

## KNIQSKDSYINANTIET [FAS2]
doa10∆
  protein stability index: 2.9 ± 0.05
pdr5∆
  protein stability index: 2.88 ± 0.043
san1∆
  protein stability index: 2.9 ± 0.038
ubr1∆
  protein stability index: 2.94 ± 0.052

## KNKKIEVYTKTIEVLDE [POP7]
doa10∆
  protein stability index: 2.12 ± 0.11
pdr5∆
  protein stability index: 2.78 ± 0.11
san1∆
  protein stability index: 2.45 ± 0.15
ubr1∆
  protein stability index: 2.61 ± 0.14

## KNKYLKDVLAQTSVTTN [SWP82]
doa10∆
  protein stability index: 2.5 ± 0.065
pdr5∆
  protein stability index: 2.5 ± 0.06
san1∆
  protein stability index: 2.71 ± 0.098
ubr1∆
  protein stability index: 2.37 ± 0.044

## KNLSLLAEEVVDNIVNK [SRP68]
doa10∆
  protein stability index: 3.15 ± 0.092
pdr5∆
  protein stability index: 2.9 ± 0.13
san1∆
  protein stability index: 3.16 ± 0.066
ubr1∆
  protein stability index: 3.01 ± 0.089

## KNQHRAASWYGSFNEMK [RMP1]
doa10∆
  protein stability index: 2.89 ± 0.048
pdr5∆
  protein stability index: 3.21 ± 0.055
san1∆
  protein stability index: 3.12 ± 0.042
ubr1∆
  protein stability index: 3.18 ± 0.038

## KNRSTIFWGIRLAKSTE [BRR2]
doa10∆
  protein stability index: 3.04 ± 0.29
pdr5∆
  protein stability index: 2.97 ± 0.16
ubr1∆
  protein stability index: 2.95 ± 0.17

## KNTLLERLKQLTPNEIK [SWP82]
doa10∆
  protein stability index: 2.8 ± 0.063
pdr5∆
  protein stability index: 2.81 ± 0.065
san1∆
  protein stability index: 2.71 ± 0.046
ubr1∆
  protein stability index: 2.68 ± 0.054

## KNYTTETDNEMNGNGKP [SIR3]
doa10∆
  protein stability index: 3.24 ± 0.078
pdr5∆
  protein stability index: 3.37 ± 0.054
san1∆
  protein stability index: 3.48 ± 0.043
ubr1∆
  protein stability index: 3.22 ± 0.055

## KPANASHAIRLGNGVAC [RGR1]
doa10∆
  protein stability index: 2.71 ± 0.06
pdr5∆
  protein stability index: 3.06 ± 0.052
san1∆
  protein stability index: 2.52 ± 0.058
ubr1∆
  protein stability index: 3.01 ± 0.051

## KPDSDIVALSSEEINQY [PRE6]
doa10∆
  protein stability index: 3.12 ± 0.05
pdr5∆
  protein stability index: 3.03 ± 0.047
san1∆
  protein stability index: 3.185 ± 0.03
ubr1∆
  protein stability index: 3.17 ± 0.034

## KPEIDENGTLLVPPPRT [RPR2]
doa10∆
  protein stability index: 3.02 ± 0.048
pdr5∆
  protein stability index: 3.15 ± 0.051
san1∆
  protein stability index: 2.99 ± 0.036
ubr1∆
  protein stability index: 2.987 ± 0.029

## KPELRKKVMPAIVVRQA [RPL23A]
doa10∆
  protein stability index: 2.83 ± 0.14
pdr5∆
  protein stability index: 2.87 ± 0.086
san1∆
  protein stability index: 2.61 ± 0.16
ubr1∆
  protein stability index: 2.97 ± 0.063

## KPGIPRGNTKIHSMNEN [SIR3]
doa10∆
  protein stability index: 3.23 ± 0.2
pdr5∆
  protein stability index: 2.9 ± 0.22
san1∆
  protein stability index: 3.32 ± 0.098
ubr1∆
  protein stability index: 3.23 ± 0.12

## KPIYKDTRFGGRMDMTR [SSN2]
doa10∆
  protein stability index: 3.1 ± 0.17
pdr5∆
  protein stability index: 3.36 ± 0.14
san1∆
  protein stability index: 3.33 ± 0.068
ubr1∆
  protein stability index: 3.4 ± 0.14

## KPKKPKGRAYKRLLYTR [RPS30A]
doa10∆
  protein stability index: 3.13 ± 0.098
pdr5∆
  protein stability index: 2.79 ± 0.11
san1∆
  protein stability index: 3.02 ± 0.086
ubr1∆
  protein stability index: 2.99 ± 0.055

## KPSPIDSGIGSNGSGIV [CSL4]
doa10∆
  protein stability index: 3.17 ± 0.06
pdr5∆
  protein stability index: 2.89 ± 0.042
san1∆
  protein stability index: 2.94 ± 0.04
ubr1∆
  protein stability index: 3.1 ± 0.046

## KPSRTSRQVQKRPRSRT [RPS7A]
doa10∆
  protein stability index: 3.08 ± 0.092
pdr5∆
  protein stability index: 2.44 ± 0.085
san1∆
  protein stability index: 2.68 ± 0.061
ubr1∆
  protein stability index: 1.95 ± 0.14

## KPTVILKLLKENIIQME [FAS1]
doa10∆
  protein stability index: 1.38 ± 0.087
pdr5∆
  protein stability index: 1.36 ± 0.12
san1∆
  protein stability index: 1.24 ± 0.11
ubr1∆
  protein stability index: 1.1 ± 0.11

## KQENSTLLKKANRDDVK [RPC82]
doa10∆
  protein stability index: 2.72 ± 0.085
pdr5∆
  protein stability index: 2.51 ± 0.13
san1∆
  protein stability index: 3.16 ± 0.22
ubr1∆
  protein stability index: 3.12 ± 0.09

## KQINEARDEILPLRLQF [PGD1]
doa10∆
  protein stability index: 2.13 ± 0.065
pdr5∆
  protein stability index: 2.63 ± 0.077
san1∆
  protein stability index: 2.4 ± 0.074
ubr1∆
  protein stability index: 2.77 ± 0.052

## KQLEKRDYQRINKNSKI [POP4]
doa10∆
  protein stability index: 2.06 ± 0.067
pdr5∆
  protein stability index: 2.4 ± 0.068
san1∆
  protein stability index: 2.02 ± 0.11
ubr1∆
  protein stability index: 2.69 ± 0.11

## KRAFENFKKFNERRKDL [SMC3]
doa10∆
  protein stability index: 3.45 ± 0.078
pdr5∆
  protein stability index: 3.26 ± 0.068
san1∆
  protein stability index: 3.51 ± 0.068
ubr1∆
  protein stability index: 3.15 ± 0.075

## KRAKEFITTLLKSLYSF [SIN4]
doa10∆
  protein stability index: 2.19 ± 0.039
pdr5∆
  protein stability index: 1.94 ± 0.05
san1∆
  protein stability index: 1.83 ± 0.07
ubr1∆
  protein stability index: 1.87 ± 0.032

## KREGRNELQEERLKVPI [POP6]
pdr5∆
  protein stability index: 3.37 ± 0.2

## KREIQEALSEKPTREPT [RPC53]
doa10∆
  protein stability index: 2.96 ± 0.11
pdr5∆
  protein stability index: 2.86 ± 0.098
san1∆
  protein stability index: 3.05 ± 0.11
ubr1∆
  protein stability index: 3.15 ± 0.1

## KRELLKRYRLKESQLPR [RPB5]
doa10∆
  protein stability index: 3.19 ± 0.2
pdr5∆
  protein stability index: 3.29 ± 0.14
ubr1∆
  protein stability index: 3.58 ± 0.14

## KRFKRKDNAKISNNLAL [SRP68]
doa10∆
  protein stability index: 2.31 ± 0.054
pdr5∆
  protein stability index: 2.59 ± 0.067
san1∆
  protein stability index: 2.26 ± 0.079
ubr1∆
  protein stability index: 1.95 ± 0.045

## KRFQVLYPCYFDINRSH [SEC65]
doa10∆
  protein stability index: 2.11 ± 0.062
pdr5∆
  protein stability index: 2.11 ± 0.055
san1∆
  protein stability index: 1.88 ± 0.071
ubr1∆
  protein stability index: 2.06 ± 0.039

## KRKEELVSTLTTGISST [SMC2]
doa10∆
  protein stability index: 2.3 ± 0.061
pdr5∆
  protein stability index: 2.07 ± 0.052
san1∆
  protein stability index: 2.61 ± 0.086
ubr1∆
  protein stability index: 2.11 ± 0.045

## KRKPAKSSSNRSCVSNS [RPN4]
doa10∆
  protein stability index: 2.89 ± 0.059
pdr5∆
  protein stability index: 3.01 ± 0.077
san1∆
  protein stability index: 3.08 ± 0.065
ubr1∆
  protein stability index: 2.98 ± 0.048

## KRPRSRTLTAVHDKILE [RPS7A]
doa10∆
  protein stability index: 2.06 ± 0.054
pdr5∆
  protein stability index: 2.13 ± 0.052
san1∆
  protein stability index: 2.25 ± 0.064
ubr1∆
  protein stability index: 1.88 ± 0.041

## KRQLIKERNQKFQLQNQ [YIL149C/MLP2]
doa10∆
  protein stability index: 2.75 ± 0.096
pdr5∆
  protein stability index: 3.17 ± 0.11
san1∆
  protein stability index: 2.99 ± 0.059
ubr1∆
  protein stability index: 2.78 ± 0.05

## KRSFSSTLKSFFTNPNK [YOR098C/NUP1]
doa10∆
  protein stability index: 2.39 ± 0.039
pdr5∆
  protein stability index: 2.31 ± 0.04
san1∆
  protein stability index: 2.32 ± 0.052
ubr1∆
  protein stability index: 2.28 ± 0.033

## KRSGHRTAPKSDNVYLK [RPL18A]
doa10∆
  protein stability index: 2.85 ± 0.12
pdr5∆
  protein stability index: 2.68 ± 0.095
san1∆
  protein stability index: 2.69 ± 0.12
ubr1∆
  protein stability index: 2.61 ± 0.077

## KRYTSEGTRNRFSYSPP [YMR129W/POM152]
doa10∆
  protein stability index: 3.09 ± 0.088
pdr5∆
  protein stability index: 3.09 ± 0.063
san1∆
  protein stability index: 2.92 ± 0.043
ubr1∆
  protein stability index: 3.09 ± 0.043

## KSAMDTFKSVSKYGMLL [POP3]
doa10∆
  protein stability index: 2.41 ± 0.063
pdr5∆
  protein stability index: 2.87 ± 0.056
san1∆
  protein stability index: 2.7 ± 0.07
ubr1∆
  protein stability index: 2.45 ± 0.055

## KSDTVTSASQPFKFGKT [YOR098C/NUP1]
doa10∆
  protein stability index: 2.34 ± 0.081
pdr5∆
  protein stability index: 1.71 ± 0.069
san1∆
  protein stability index: 1.62 ± 0.12
ubr1∆
  protein stability index: 1.97 ± 0.052

## KSFTNDKIPLNYAMTRN [SRB5]
doa10∆
  protein stability index: 2.8 ± 0.13
pdr5∆
  protein stability index: 2.55 ± 0.1
san1∆
  protein stability index: 2.45 ± 0.06
ubr1∆
  protein stability index: 2.67 ± 0.069

## KSGIPEFTPADPNLSFE [SSN2]
doa10∆
  protein stability index: 2.96 ± 0.091
pdr5∆
  protein stability index: 3.04 ± 0.055
san1∆
  protein stability index: 2.78 ± 0.054
ubr1∆
  protein stability index: 3.25 ± 0.062

## KSHSTVSSSSRHHRKTE [ISW2]
doa10∆
  protein stability index: 2.7 ± 0.055
pdr5∆
  protein stability index: 2.69 ± 0.043
san1∆
  protein stability index: 2.14 ± 0.052
ubr1∆
  protein stability index: 2.88 ± 0.041

## KSICFENCLNNDPEILK [SWI1]
doa10∆
  protein stability index: 2.2 ± 0.087
pdr5∆
  protein stability index: 2.69 ± 0.056
san1∆
  protein stability index: 2.83 ± 0.068
ubr1∆
  protein stability index: 2.7 ± 0.074

## KSLDKKIAKRRQVYKPV [POP3]
doa10∆
  protein stability index: 3.25 ± 0.21
pdr5∆
  protein stability index: 3.09 ± 0.15
san1∆
  protein stability index: 2.54 ± 0.23
ubr1∆
  protein stability index: 3.5 ± 0.2

## KSLEVVNADTVGKTVKQ [NSL1]
doa10∆
  protein stability index: 3.13 ± 0.059
pdr5∆
  protein stability index: 2.99 ± 0.049
san1∆
  protein stability index: 2.77 ± 0.051
ubr1∆
  protein stability index: 3.08 ± 0.047

## KSLGVKSLGGGAALKDI [FAS2]
doa10∆
  protein stability index: 3 ± 0.051
pdr5∆
  protein stability index: 2.25 ± 0.049
san1∆
  protein stability index: 2.41 ± 0.048
ubr1∆
  protein stability index: 2.86 ± 0.057

## KSLLLNTLNIDNTARVI [BRN1]
doa10∆
  protein stability index: 2.71 ± 0.057
pdr5∆
  protein stability index: 2.48 ± 0.052
san1∆
  protein stability index: 2.47 ± 0.066
ubr1∆
  protein stability index: 2.42 ± 0.034

## KSPEQCILRFLQLPIED [SWI3]
doa10∆
  protein stability index: 1.81 ± 0.067
pdr5∆
  protein stability index: 2.3 ± 0.062
san1∆
  protein stability index: 1.76 ± 0.12
ubr1∆
  protein stability index: 1.41 ± 0.038

## KSQNTALPSTHKVTQKK [SIR4]
doa10∆
  protein stability index: 2.6 ± 0.061
pdr5∆
  protein stability index: 2.9 ± 0.061
san1∆
  protein stability index: 2.79 ± 0.071
ubr1∆
  protein stability index: 3.01 ± 0.05

## KSSGSSMATPTHSDSHE [ROX3]
doa10∆
  protein stability index: 3.08 ± 0.16
pdr5∆
  protein stability index: 2.97 ± 0.1
san1∆
  protein stability index: 2.82 ± 0.064
ubr1∆
  protein stability index: 2.52 ± 0.091

## KSSWRQEWLANLKLISV [SIR4]
doa10∆
  protein stability index: 1.71 ± 0.057
pdr5∆
  protein stability index: 1.45 ± 0.042
san1∆
  protein stability index: 1.64 ± 0.16
ubr1∆
  protein stability index: 1.46 ± 0.045

## KSTDLTPKGNESEQELS [MTR3]
doa10∆
  protein stability index: 3.39 ± 0.11
pdr5∆
  protein stability index: 2.9 ± 0.089
san1∆
  protein stability index: 2.46 ± 0.089
ubr1∆
  protein stability index: 3.21 ± 0.054

## KSTDNSAIRQVFERFKT [IRR1]
doa10∆
  protein stability index: 2.21 ± 0.046
pdr5∆
  protein stability index: 2.7 ± 0.046
san1∆
  protein stability index: 2.19 ± 0.062
ubr1∆
  protein stability index: 2.8 ± 0.045
